In article doi:10.1101/800169 (bioRxiv, 2019):

T1: EccC3 (M. smegmatis (endogenous in M. …, UniProt A0QQ40 1-1325))
T1 sequence: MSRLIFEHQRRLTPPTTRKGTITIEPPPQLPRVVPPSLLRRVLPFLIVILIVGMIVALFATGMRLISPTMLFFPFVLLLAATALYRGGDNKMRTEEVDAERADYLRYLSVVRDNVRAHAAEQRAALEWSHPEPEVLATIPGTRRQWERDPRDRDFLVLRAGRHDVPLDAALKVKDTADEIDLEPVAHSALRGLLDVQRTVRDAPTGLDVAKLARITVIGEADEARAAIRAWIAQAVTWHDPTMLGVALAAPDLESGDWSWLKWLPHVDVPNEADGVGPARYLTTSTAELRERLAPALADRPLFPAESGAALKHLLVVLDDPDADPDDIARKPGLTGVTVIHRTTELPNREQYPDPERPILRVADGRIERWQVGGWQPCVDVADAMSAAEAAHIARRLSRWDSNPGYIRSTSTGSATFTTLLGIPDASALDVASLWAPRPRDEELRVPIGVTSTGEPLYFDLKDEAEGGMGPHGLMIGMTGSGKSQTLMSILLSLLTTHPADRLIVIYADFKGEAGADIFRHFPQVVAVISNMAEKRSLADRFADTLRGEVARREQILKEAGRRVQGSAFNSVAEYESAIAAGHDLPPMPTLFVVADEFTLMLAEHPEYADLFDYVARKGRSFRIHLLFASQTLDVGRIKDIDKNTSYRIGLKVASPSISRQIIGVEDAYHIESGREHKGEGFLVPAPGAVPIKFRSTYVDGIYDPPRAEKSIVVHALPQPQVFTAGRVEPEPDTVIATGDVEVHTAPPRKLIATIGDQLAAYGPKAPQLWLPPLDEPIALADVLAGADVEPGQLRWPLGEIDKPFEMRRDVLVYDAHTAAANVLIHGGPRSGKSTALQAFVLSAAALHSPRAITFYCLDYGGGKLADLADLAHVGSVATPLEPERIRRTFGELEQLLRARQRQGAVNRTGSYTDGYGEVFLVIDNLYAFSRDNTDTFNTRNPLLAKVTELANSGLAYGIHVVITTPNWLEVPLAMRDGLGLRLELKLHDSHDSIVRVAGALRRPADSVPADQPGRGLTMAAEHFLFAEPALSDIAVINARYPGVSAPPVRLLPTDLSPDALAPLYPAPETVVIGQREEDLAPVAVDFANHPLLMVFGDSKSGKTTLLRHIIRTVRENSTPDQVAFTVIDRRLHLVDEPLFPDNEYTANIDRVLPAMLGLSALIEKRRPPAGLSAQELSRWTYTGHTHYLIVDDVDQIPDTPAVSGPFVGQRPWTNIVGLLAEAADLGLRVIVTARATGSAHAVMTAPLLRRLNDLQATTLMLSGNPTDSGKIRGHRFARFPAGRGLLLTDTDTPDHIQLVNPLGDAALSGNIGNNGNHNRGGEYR

B1: EccD3 (natural protein)
chain: MSENTVMPIVRVAVLAAGDDGGRLTEMALPSELPLREILPAVQRIVQPARENDGAADPAAAPNPVRLSLAPIGGAPFSLDATLDTVGVVDGDLLALQAVPSGPPAPRIVEDIADAAVIFSEARRRQWGPTHIARGAALALIGLILVGTGLSVAHRVITGDLLGQFIVSGIALATVIAALAVRNRSAVLATSLAVTALVPVAAAFALGVPGDFGAPNVLLAAAGVAAWSLISMAGSPDDRGIAVFTATAVTGVGVLLVAGAASLWVISSDVIGCALVLLGLIVTVQAAQLSAMWARFPLPVIPAPGDPTPAARPLSVLADLPRRVRVSQAHQTGVIAAGVLLGVAGSVALVSSANASPWAWYIVVAAAAGAALRARVWDSAACKAWLLGHSYLLAVALLVAFVIGDRYQAALWALAALAVLVLVWIVAALNPKIASPDTYSLPMRRMVGFLATGLDASLIPVMALLVGLFSLVLDR
B2: EccB3 (natural protein)
chain: MTGPVNPDDRRSFSSRTPVNENPDGVQYRRGFVTRHQVSGWRFVMRRIASGVALHDTRMLVDPLRTQSRAVLTGALILVTGLVGCFIFSLFRPGGVPGNNAILADRSTSALYVRVGEQLHPVLNLTSARLISGSPDNPTMVKTSEIDKFPRGNLLGIPGAPERMVQNAATDAEWTVCDAVGGANPGVTVIAGPLGADGERAAPLPPDHAVLVHSDAEPNPGDWLLWDGKRSPIDLADRAVTDALGLGGQALAPRPIAAGLFNAVPAAPALTAPVIPDAGAAPQFELSLPVPVGAVVVAYDADNTARYYAVLSDGLQPISPVLAAILRNTDSHGFAQPPRLGPDEVARTPMSRGLDTSAYPDNPVTLVEASAHPVTCAHWTKPSDAAESSLSVLSGAVLPLAEGLHTVDLVGAGAGGAANRVALTPGTGYFVQTVGAEPGSPTAGSMFWVSDTGVRYGIDTAEDDKVVAALGLSTSPLPVPWSVLSQFAAGPALSRGDALVAHDAVSTNPNSARMEASR

Key:
Experiment in all cases: cryo-EM structure
cryo-EM structure = target: the molecule itself
EccB3 = target: B2
EccC3 = target: T1, EccC3
EccD3 = target: B1

Binder	stoichiometry N (cryo-EM structure)	binding result (EccB3)	binding result (EccC3)	binding result (EccD3)	binding result (cryo-EM structure)
B1	2	binds	binds		
EccE3 (natural protein) MTARIALASLFVVAAVLAQPWQTTTQRWVLGVSIAAVIVLLAWWKGMFLTTRIGRALAMVRRNRAEDTVETDAHRATVVLRVDPAAPAQLPVVVGYLDRYGITCDKVRITHRDAGGTRRSWISLTVDAVDNLAALQARSARIPLQDTTEVVGRRLADHLREQGWTVTVVEGVDTPLPVSGKETWRGVADDAGVVAAYRVKVDDRLDEVLAEIGHLPAEETWTALEFTGSPAEPLLTVCAAVRTSDRPAAKAPLAGLTPARGRHRPALAALNPLSTERLDGTAVPLPAVVRTSVKGSVEHEAAQEAGHPA				binds	
B2			binds		binds
